In general, Kd refers to the concentration at which binding is half-saturated.

In this experiment the target is DNAJB1 (recombinant, as used in SPR) (human) (UniProt P25685). The experiment can be described thus: SPR. (In general: In SPR one partner is held on a chip, and binding of the other changes the refractive index at the surface.)
UniProt P25685, sequence (P25685 whole entry): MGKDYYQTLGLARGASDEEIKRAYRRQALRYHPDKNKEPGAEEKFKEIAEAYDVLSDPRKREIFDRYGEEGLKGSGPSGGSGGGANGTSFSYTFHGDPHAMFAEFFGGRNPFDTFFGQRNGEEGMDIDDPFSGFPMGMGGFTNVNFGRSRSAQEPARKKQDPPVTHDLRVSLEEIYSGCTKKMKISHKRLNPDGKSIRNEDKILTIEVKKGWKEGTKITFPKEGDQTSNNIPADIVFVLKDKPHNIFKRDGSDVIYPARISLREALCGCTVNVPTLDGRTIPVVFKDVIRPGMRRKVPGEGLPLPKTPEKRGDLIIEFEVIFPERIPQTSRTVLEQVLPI

With “K27-linked diubiquitin (chemically synthesized; tag not told for the experiment) (from UniProt P0CG48 1-76; P0CG48 1-76)”, the Kd stood at 1830 nM.

As for “K27-linked tetraubiquitin (synthetic) (from UniProt P0CG48 1-76)”, the Kd amounted to 3420 nM.
